# Literature values in paper PMC3472557.
# Key:
# ASPP2 (Homo sapiens) [1] = molecular target: ASPP2 (Homo sapiens) (UniProt Q13625); assay: BIAcore SPR
# ASPP2 (Homo sapiens) [2] = molecular target: ASPP2 (Homo sapiens) (UniProt Q13625); assay: solid-phase ELISA
# ASPP2 (Homo sapiens), sequence (Q13625 whole entry): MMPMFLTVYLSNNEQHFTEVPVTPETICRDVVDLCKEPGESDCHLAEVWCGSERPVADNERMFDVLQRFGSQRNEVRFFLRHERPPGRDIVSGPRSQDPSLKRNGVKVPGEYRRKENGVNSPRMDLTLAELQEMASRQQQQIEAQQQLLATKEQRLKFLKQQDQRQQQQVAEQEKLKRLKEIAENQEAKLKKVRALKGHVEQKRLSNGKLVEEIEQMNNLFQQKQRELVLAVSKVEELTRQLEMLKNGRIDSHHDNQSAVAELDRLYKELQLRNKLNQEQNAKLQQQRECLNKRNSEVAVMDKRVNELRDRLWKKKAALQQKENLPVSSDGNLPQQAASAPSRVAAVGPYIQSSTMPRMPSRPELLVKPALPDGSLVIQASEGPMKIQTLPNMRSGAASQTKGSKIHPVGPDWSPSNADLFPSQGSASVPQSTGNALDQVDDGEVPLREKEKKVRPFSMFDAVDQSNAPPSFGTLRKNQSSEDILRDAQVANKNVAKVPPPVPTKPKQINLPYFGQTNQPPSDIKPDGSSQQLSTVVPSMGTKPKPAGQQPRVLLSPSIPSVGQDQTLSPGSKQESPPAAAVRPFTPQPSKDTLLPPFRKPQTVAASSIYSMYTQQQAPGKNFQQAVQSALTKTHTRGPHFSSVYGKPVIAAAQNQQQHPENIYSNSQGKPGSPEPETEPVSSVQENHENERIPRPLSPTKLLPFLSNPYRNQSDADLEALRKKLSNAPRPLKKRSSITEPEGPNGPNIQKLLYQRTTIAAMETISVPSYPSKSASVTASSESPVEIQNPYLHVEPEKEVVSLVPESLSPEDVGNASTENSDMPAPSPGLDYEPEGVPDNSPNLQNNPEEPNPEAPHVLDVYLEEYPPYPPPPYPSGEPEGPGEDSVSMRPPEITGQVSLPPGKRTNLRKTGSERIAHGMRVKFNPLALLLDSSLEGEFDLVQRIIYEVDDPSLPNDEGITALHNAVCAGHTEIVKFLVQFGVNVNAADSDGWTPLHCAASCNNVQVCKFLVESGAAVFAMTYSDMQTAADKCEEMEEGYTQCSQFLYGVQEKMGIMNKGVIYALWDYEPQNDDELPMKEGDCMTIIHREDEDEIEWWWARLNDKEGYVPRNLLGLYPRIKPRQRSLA
substance,measurement,setting,value
p53 (from UniProt P04637),Kd,ASPP2 (Homo sapiens) [1],30 nM
same,Kd,ASPP2 (Homo sapiens) [2],23 nM
